Patent US20200071380A1, “COMBINATION THERAPIES COMPRISING SIRP ALPHA-BASED CHIMERIC PROTEINS” (Shattuck Labs, Inc., priority 2018, published 2020)

What was measured:
FcγR-IIIb = FcγR-IIIb (Homo sapiens, UniProt O75015); experiment: SPR binding to FcγR-IIIb; details: surface plasmon resonance (SPR)
Source text: (§1) The extracellular domain (ECD) of SIRPα and the ECD of CD40L were fused via an antibody Fc domain to generate SIRPαECD-Fc-CD40LECD chimeric proteins. When human proteins were used, the chimeric protein is referred to as hSIRPα-Fc-CD40L; when murine proteins were used, the chimeric protein is referred to as and mSIRPα-Fc-CD40L. Generically, the chimeric protein is referred to as SIRPα-Fc-CD40L. […] Mammalian cells were then transfected with the hSIRPα-Fc-CD40L expressing construct, and the secreted protein was purified from conditioned media by affinity chromatography. The purified protein was then analyzed for the presence of each individual domain by Western blotting using anti-SIRPα, anti-Fc, and anti-CD40L antibodies (FIG. 3A, bottom). […] The reduced and deglycosylated form of the protein migrated at the predicted monomeric molecular weight of 90.1 kDa. […] Next, binding affinities for SIRPα-Fc-CD40L to recombinant CD47, CD40, or Fc receptors were evaluated by surface plasmon resonance (SPR). […] Finally, to confirm that SIRPα-Fc-CD40L interacted with native CD47 and CD40 in a similar manner to recombinant CD47 and CD40, CHOK1-hCD47 and CHOK1-hCD40 reporter cell lines were developed (FIG. 3F). […] A functional ELISA evaluated whether SIRPα-Fc-CD40L could outcompete a commercially available single-sided SIRPα-Fc control for binding to recombinant CD47 (FIG. 3H).

[1] = system: CD8+ T cell-depleted PBMC; experiment: IL-2 ELISpot of CD8+ T cell-depleted PBMC; type: cell-based, human; details: day 8 of the culture
Procedure: (§2) Here, proliferation was assessed via [^3H]-Thymidine incorporation on days 5, 6, and 7. The order of samples (in triplicate) along the X-axis is media only, KLH, Exenatide, 0.3 nm SIRPα-Fc-CD40L, 3 nm SIRPα-Fc-CD40L, 30 nm SIRPα-Fc-CD40L and 300 nm SIRPα-Fc-CD40L. […] Here, proliferation was assessed by ELISpot. The order of samples (in triplicate) along the X-axis is media only, KLH, Exenatide, 0.3 nm SIRPα-Fc-CD40L, 3 nm SIRPα-Fc-CD40L, 30 nm SIRPα-Fc-CD40L and 300 nm SIRPα-Fc-CD40L.
(§3) The observation that SIRPα-Fc-CD40L stimulated CD40 signaling prompted investigation of other cellular functions that depend upon CD40 signaling. CD8+ T cell-depleted PBMC were isolated from a total of 33-50 different human donors and cultured in the presence of a dose-titration of hSIRPα-Fc-CD40L (FIG. 6A and FIG. 6B).

[2] = Repeat-dose safety and activity study in cynomolgus macaques; type: in vivo; details: intravenous infusion every week for five weeks, 0.1, 1, 10 and 40 mg/kg
Procedure: FIG. 21A-D is a graph showing cynomolgus macaques that were treated with vehicle, or 0.1, 1, 10, and 40 mg/kg of SIRPα-Fc-CD40L. Blood chemistry analysis assessed peripheral erythrocyte counts (FIG. 21A), hemoglobin levels (FIG. 21C), and hematocrit (FIG. 21B). In addition, the fold-change in lymphocyte count from pre-dose to 24 hours post-dose is shown (FIG. 21D).
The experiments of this example tested the safety and activity of the human SIRPα-Fc-CD40L chimeric protein following repeat doses in cynomolgus macaques. Briefly, naïve cynomolgus macaques were administered the human SIRPα-Fc-CD40L chimeric protein by intravenous infusion every week, for five consecutive weeks, at doses of 0.1, 1, 10 and 40 mg/kg. Standard hematology and clinical chemistry parameters were collected before and after each dose.
Receptor occupancy was evaluated on circulating CD40+ lymphocytes.

[3] = system: CD8+ T cell-depleted PBMC; experiment: Proliferation of CD8+ T cell-depleted PBMC ([3H]-thymidine); type: cell-based, human; details: 0.3, 3, 30, or 300 nM; 7-day culture
Procedure: as §2, §3

FcγR-Ia = FcγR-Ia (Homo sapiens, UniProt P12314); experiment: SPR binding to FcγR-Ia; details: surface plasmon resonance (SPR)
Source text: Scale is shown and yellow arrows correspond with each identified monomer. A schematic of the hexamer species is shown to the right, depicting dimerization of the Fc domain and trimerization of the CD40L domain. […] Recombinant hSIRPα-Fc, hCD40L-Fc, and hIgG1 were used as positive controls. […] In both panels, the CHOK1 Parental is on the left and the CHOK1/hCD47 is on the right. […] For both graphs, the CHOK1 Parental is on the bottom. […] In this figure, the control is the top curve, the SIRPα-Fc-CD40L is the middle curve, and the anti-CD47 is the bottom curve.
The extracellular domain (ECD) of SIRPα and the ECD of CD40L were fused via an antibody Fc domain to generate SIRPαECD-Fc-CD40LECD chimeric proteins. When human proteins were used, the chimeric protein is referred to as hSIRPα-Fc-CD40L; when murine proteins were used, the chimeric protein is referred to as and mSIRPα-Fc-CD40L. […] The purified protein was then analyzed for the presence of each individual domain by Western blotting using anti-SIRPα, anti-Fc, and anti-CD40L antibodies (FIG. 3A, bottom). […] Next, binding affinities for SIRPα-Fc-CD40L to recombinant CD47, CD40, or Fc receptors were evaluated by surface plasmon resonance (SPR). […] A functional ELISA evaluated whether SIRPα-Fc-CD40L could outcompete a commercially available single-sided SIRPα-Fc control for binding to recombinant CD47 (FIG. 3H).

FcγR-IIb = biological target: T1, FcγR-IIb (Homo sapiens, UniProt P31994); experiment: SPR binding to FcγR-IIb; details: surface plasmon resonance (SPR)
T1 sequence (P31994 43-310): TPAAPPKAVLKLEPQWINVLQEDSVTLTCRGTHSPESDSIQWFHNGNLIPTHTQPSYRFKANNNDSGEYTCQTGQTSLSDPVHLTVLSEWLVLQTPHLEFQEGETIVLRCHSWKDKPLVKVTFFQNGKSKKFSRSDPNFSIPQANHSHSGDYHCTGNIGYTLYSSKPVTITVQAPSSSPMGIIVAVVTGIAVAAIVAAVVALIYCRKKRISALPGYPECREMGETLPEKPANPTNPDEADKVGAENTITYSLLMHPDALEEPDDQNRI
Source text: as §1

FcγR-IIIb, sequence (O75015 17-200): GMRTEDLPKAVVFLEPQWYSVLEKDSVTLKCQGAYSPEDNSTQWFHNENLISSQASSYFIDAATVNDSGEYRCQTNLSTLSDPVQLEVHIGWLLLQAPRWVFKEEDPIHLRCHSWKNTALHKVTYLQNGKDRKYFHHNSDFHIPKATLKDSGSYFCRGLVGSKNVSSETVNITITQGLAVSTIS
FcγR-Ia, sequence (P12314 16-374): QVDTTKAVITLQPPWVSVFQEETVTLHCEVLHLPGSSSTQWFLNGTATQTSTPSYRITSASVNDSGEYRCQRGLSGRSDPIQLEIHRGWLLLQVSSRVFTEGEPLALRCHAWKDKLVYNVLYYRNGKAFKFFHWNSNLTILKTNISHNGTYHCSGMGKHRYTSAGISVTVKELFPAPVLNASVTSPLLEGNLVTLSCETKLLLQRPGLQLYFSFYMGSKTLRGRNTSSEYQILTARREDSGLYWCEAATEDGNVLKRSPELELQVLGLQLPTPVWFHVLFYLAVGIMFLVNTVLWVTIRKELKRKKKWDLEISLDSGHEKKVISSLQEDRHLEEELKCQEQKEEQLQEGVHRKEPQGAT

binding to FcγR-IIIb (FcγR-IIIb): undetectable binding
binding to FcγR-Ia (FcγR-Ia): undetectable binding
binding to FcγR-IIb (FcγR-IIb): undetectable binding
Substance: hSIRPα-Fc-CD40L: Chimeric protein: human SIRPα extracellular domain fused via an antibody Fc domain to human CD40L extracellular domain (SEQ ID NO: 60)
number of IL-2-secreting PBMC [1]: dose-dependent increase in the number of IL-2-secreting PBMC
hemolysis or thrombocytopenia [2]: no evidence of hemolysis or thrombocytopenia
proliferation of human PBMC [3]: dose-dependent proliferation of human PBMC
